For one molecule, % Activity and Average % Activity results are on record in patent publication US20200181243A1.

Like-named read-outs stand apart in the source and are kept apart here.

Test [1] addresses Hemagglutinin (HA).
The target of test [2] is Hemagglutinin (HA). The test is described as follows: Hemagglutinin (HA) binding ELISA potency; antibody in Formulation #3, t=0.

B1: Ab 044 (antibody, V domains shown)
VH: QVQLLETGGGLVKPGQSLKLSCAASGFTFTSYAMHWVRQPPGKGLEWVAVVSYDGNYKYYADSVQGRFTISRDNSKNTLYLQMNSLRAEDTAVYYCAKDSRLRSLLYFEWLSQGYFNPWGQGTTLTVSS
VL: DIQMTQSPSSLSASVGDRVTITCRSSQSITFDYKNYLAWYQQKPGKAPKLLIYWGSYLESGVPSRFSGSGSGTDFTLTISSLQPEDFATYYCQQHYRTPPSFGQGTKVEIK
Take B1: the % Activity in the test with Hemagglutinin (HA) [1] came to 97%; with Hemagglutinin (HA) [2] it was 123%. The same molecule returned an Average % Activity with Hemagglutinin (HA) [1] of 110%.
